Holding throughout (assay): cell-based or functional assay
Experiment [1] has as its target β-amyloid peptide 1-42 (Aβ), pre-aggregated for 6 hrs, toxic oligomer-containing solution (UniProt P05067).
Experiment [2] addresses transthyretin (TTR), pre-incubated at pH 4.5 for 24 hrs, toxic oligomer-containing solution (UniProt P02766).
For experiment [3], the target named is β-amyloid peptide 1-42 (Aβ), fresh (0 h), monomeric (UniProt P05067).
Sequence of β-amyloid peptide 1-42 (Aβ), fresh (0 h), monomeric (P05067 672-713 limits assumed): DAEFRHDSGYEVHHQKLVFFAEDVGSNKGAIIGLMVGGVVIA

Sequence of β-amyloid peptide 1-42 (Aβ), pre-aggregated for 6 hrs, toxic oligomer-containing solution (P05067 672-713 limits assumed): as above

Take “α1 (ldas90, peptide #1 of FIG. 5), Ac-RGEmNlSwMNEYSGWtMnLkMGR-NH2 (designed binder)”: in experiment [1], the inhibition of Aβ fibril formation (ThT fluorescence, 22 hours, 37° C.; peptide co-incubated 10:1 from the start) is 87% and the inhibition of aggregation after addition to pre-aggregated (6 hrs), toxic Aβ (ThT) is 97%. In addition, in experiment [2], the inhibition of the remaining TTR aggregation after addition to 24-hour pre-incubated, toxic TTR (Congo red) came to 81% and the percentage inhibition of TTR aggregation (Congo red binding, 48 h, 37° C., pH 4.5; peptide co-incubated 20:1 from the start) came to 72%.
Turning to “β (β-sheet control design: Trpzip 3 peptide with Trp to Leu substitutions) (designed binder)”, in experiment [3], the inhibition of Aβ fibrillization (ThT fluorescence; co-incubated 10:1) was 62%.

These data come from patent US20160031952A1.
